Test results as given in the supplement of paper PMC11865577.

How the values were obtained:
Assay in all cases: pull-down binding Z-score (relative to library population); higher = stronger binding
[1] = test system: G-clamp-N3 (biotin conjugate); details: RNA library: Library-1 (pre-miRNA loops + repeats)
Procedure, shortened: (§1)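 Cy5- or Cy3-end-labelled RNA library (1 μg) was heat-folded in phosphate/NaCl/KCl buffer and incubated 60 min at 25 °C with streptavidin beads carrying 100 pmol biotin-conjugated small molecule. After three washes, bound RNA was eluted in hot SDS and hybridised 20 h at 55.5 °C to a DNA barcode microarray. Binding was scored by subtracting a beads-only control, averaging barcoded replicate probes after dropping highest and lowest, and converting to a Z-score against library mean and standard deviation.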

[2] = test system: TO-3-N3 (biotin conjugate); details: RNA library: Library-2
Procedure, shortened: as §1

[3] = test system: TO-3-N3-2 (biotin conjugate); details: RNA library: Library-2
Procedure, shortened: as §1

TO-N3 (biotin conjugate) = details: RNA library: Library-2
Procedure, shortened: as §1

[4] = test system: TO-N3-2 (biotin conjugate); details: RNA library: Library-2
Procedure, shortened: as §1

## GAAGCCUUGAUCAGAAGCUAGGAAGGCUUC [hsa-mir-4762]
[1]
  pull-down binding Z-score: 1.95
[2]
  pull-down binding Z-score: 0.782
[3]
  pull-down binding Z-score: 0.433
TO-N3 (biotin conjugate)
  pull-down binding Z-score: 0.654
[4]
  pull-down binding Z-score: 0.593

## GGAGGCACUGCCAGGGCUGCCCAC [hsa-mir-1202]
[1]
  pull-down binding Z-score: -0.43
[2]
  pull-down binding Z-score: 0.521
[3]
  pull-down binding Z-score: 0.277
TO-N3 (biotin conjugate)
  pull-down binding Z-score: 1.21
[4]
  pull-down binding Z-score: 2.09

## GAUGGAUUCUUAUGCUCCAUC [hsa-mir-136]
[1]
  pull-down binding Z-score: 0.328
[2]
  pull-down binding Z-score: -0.326
[3]
  pull-down binding Z-score: -0.443
TO-N3 (biotin conjugate)
  pull-down binding Z-score: -0.631
[4]
  pull-down binding Z-score: -0.9

## AGAUAUAUAUAUACCUCAUAUGUAUAUGGUAUAC [hsa-mir-4777]
[1]
  pull-down binding Z-score: -1.5
[2]
  pull-down binding Z-score: -1.2
[3]
  pull-down binding Z-score: -0.53
TO-N3 (biotin conjugate)
  pull-down binding Z-score: -1.37
[4]
  pull-down binding Z-score: -0.944

## GGGCGCCGGCGGCCGGGAGAUCCGCGCUUCCUGAAUCCCGGCCGGCCCGCCCGGCGCCC [hsa-mir-4497]
[1]
  pull-down binding Z-score: -0.232
[2]
  pull-down binding Z-score: 0.25
[3]
  pull-down binding Z-score: -0.00137
TO-N3 (biotin conjugate)
  pull-down binding Z-score: 0.447
[4]
  pull-down binding Z-score: 1.22

## AUAUGUGUGUAUAUAUGUACACAUAC [hsa-mir-466]
[1]
  pull-down binding Z-score: -0.157
[2]
  pull-down binding Z-score: -0.227
[3]
  pull-down binding Z-score: -0.378
TO-N3 (biotin conjugate)
  pull-down binding Z-score: -0.604
[4]
  pull-down binding Z-score: -1.14

## AGCUGGCUGAAGGGCAGAAGGGAACUGUCCUUCAGCCAGAG [hsa-mir-4487]
[1]
  pull-down binding Z-score: -0.139
[2]
  pull-down binding Z-score: -0.276
[3]
  pull-down binding Z-score: -0.156
TO-N3 (biotin conjugate)
  pull-down binding Z-score: -0.243
[4]
  pull-down binding Z-score: -0.122

## CUGUGGCCGGUCCCAG [hsa-mir-4656]
[1]
  pull-down binding Z-score: -0.405
[2]
  pull-down binding Z-score: 1.39
[3]
  pull-down binding Z-score: -0.0683
TO-N3 (biotin conjugate)
  pull-down binding Z-score: 1.45
[4]
  pull-down binding Z-score: 0.902

## UGAAGAAGAGUAUUGAUUGUGCUGUUCG [hsa-mir-6788]
[1]
  pull-down binding Z-score: 0.592
[2]
  pull-down binding Z-score: 0.425
[3]
  pull-down binding Z-score: -0.00107
TO-N3 (biotin conjugate)
  pull-down binding Z-score: 0.494
[4]
  pull-down binding Z-score: 0.16

## GGGAAGGAGAAGGGACGCUUCCC [hsa-mir-3127]
[1]
  pull-down binding Z-score: 2.68
[2]
  pull-down binding Z-score: 0.262
[3]
  pull-down binding Z-score: 0.167
TO-N3 (biotin conjugate)
  pull-down binding Z-score: 0.268
[4]
  pull-down binding Z-score: 0.895

## CCUAGAGUCCAUUCUUUACUCUAGG [hsa-mir-4779]
[1]
  pull-down binding Z-score: -0.507
[2]
  pull-down binding Z-score: -0.699
[3]
  pull-down binding Z-score: -0.586
TO-N3 (biotin conjugate)
  pull-down binding Z-score: -1.18
[4]
  pull-down binding Z-score: -1.28

## UGAGGAGUAGAACACUCCUUA [hsa-mir-491]
[1]
  pull-down binding Z-score: 0.0146
[2]
  pull-down binding Z-score: -0.282
[3]
  pull-down binding Z-score: -0.448
TO-N3 (biotin conjugate)
  pull-down binding Z-score: -0.649
[4]
  pull-down binding Z-score: -0.939

## AGGUUUAUGACUGGGCAUUUCUCACCCAAUGCCCAAUAUUGAACUU [hsa-mir-4431]
[1]
  pull-down binding Z-score: -0.59
[2]
  pull-down binding Z-score: -0.564
[3]
  pull-down binding Z-score: -0.213
TO-N3 (biotin conjugate)
  pull-down binding Z-score: -0.752
[4]
  pull-down binding Z-score: -0.666

## CGGUCCCAUAUUGAACUCG [hsa-mir-4444-1_4444-2]
[1]
  pull-down binding Z-score: -1.03
[2]
  pull-down binding Z-score: -0.626
[3]
  pull-down binding Z-score: -0.418
TO-N3 (biotin conjugate)
  pull-down binding Z-score: -0.4
[4]
  pull-down binding Z-score: -0.109

## CAUUCACAUAGACUAUAAUUGAAUG [hsa-mir-652]
[1]
  pull-down binding Z-score: 0.721
[2]
  pull-down binding Z-score: -0.751
[3]
  pull-down binding Z-score: -0.353
TO-N3 (biotin conjugate)
  pull-down binding Z-score: -0.944
[4]
  pull-down binding Z-score: -0.703

## UGUGGUUGGGGCCAUGGCGGGUGGGCAGCCCAGCCUCUGAGCCUUCCU [hsa-mir-1238]
[1]
  pull-down binding Z-score: -0.179
[2]
  pull-down binding Z-score: 2.04
[3]
  pull-down binding Z-score: 1.74
TO-N3 (biotin conjugate)
  pull-down binding Z-score: 2.76
[4]
  pull-down binding Z-score: 2.37

## AUCAUAAUAAAGGUGUCAUGAU [hsa-mir-3682]
[1]
  pull-down binding Z-score: -0.55
[2]
  pull-down binding Z-score: -0.489
[3]
  pull-down binding Z-score: -0.169
TO-N3 (biotin conjugate)
  pull-down binding Z-score: -0.879
[4]
  pull-down binding Z-score: -0.694

## AGUCCAAAGGAAAGGGCU [hsa-mir-8077]
[1]
  pull-down binding Z-score: -0.578
[2]
  pull-down binding Z-score: 0.999
[3]
  pull-down binding Z-score: 0.232
TO-N3 (biotin conjugate)
  pull-down binding Z-score: 0.822
[4]
  pull-down binding Z-score: -0.0277

## UUCUUGUACGAGUCUGCGGCCAACCGAGAA [hsa-mir-219a-2]
[1]
  pull-down binding Z-score: -0.0874
[2]
  pull-down binding Z-score: -0.402
[3]
  pull-down binding Z-score: -0.366
TO-N3 (biotin conjugate)
  pull-down binding Z-score: 0.347
[4]
  pull-down binding Z-score: 0.974

## CCGACUCGGGCUCUGGAGCAGUC [hsa-mir-152]
[1]
  pull-down binding Z-score: 0.748
[2]
  pull-down binding Z-score: 0.836
[3]
  pull-down binding Z-score: 0.274
TO-N3 (biotin conjugate)
  pull-down binding Z-score: 1.09
[4]
  pull-down binding Z-score: 0.692

## AUAAUACGGAUUACGUUGUUA [hsa-mir-137]
[1]
  pull-down binding Z-score: -1.89
[2]
  pull-down binding Z-score: -0.188
[3]
  pull-down binding Z-score: -0.139
TO-N3 (biotin conjugate)
  pull-down binding Z-score: 0.148
[4]
  pull-down binding Z-score: -0.0367

## GAGUUUGGAGUCGGUGGGUGGAGCCAAACUG [hsa-mir-6860]
[1]
  pull-down binding Z-score: 2.37
[2]
  pull-down binding Z-score: 1.13
[3]
  pull-down binding Z-score: 0.706
TO-N3 (biotin conjugate)
  pull-down binding Z-score: 1.5
[4]
  pull-down binding Z-score: 1.52

## UGGCUGUAGGGCAGCAGUCA [hsa-mir-8079]
[1]
  pull-down binding Z-score: 0.959
[2]
  pull-down binding Z-score: 1.29
[3]
  pull-down binding Z-score: 0.456
TO-N3 (biotin conjugate)
  pull-down binding Z-score: 1.16
[4]
  pull-down binding Z-score: 0.479

## GCAUUUUAUCUAAGAUACACACAAAGCAAAUGC [hsa-mir-4439]
[1]
  pull-down binding Z-score: -1.12
[2]
  pull-down binding Z-score: 0.441
[3]
  pull-down binding Z-score: 0.179
TO-N3 (biotin conjugate)
  pull-down binding Z-score: 0.118
[4]
  pull-down binding Z-score: -0.81

## GGUGGGUGGGAAGUAAGAUCUGACCUGGACUCCAUCCCACCCACC [hsa-mir-4640]
[1]
  pull-down binding Z-score: 0.122
[2]
  pull-down binding Z-score: 4.87
[3]
  pull-down binding Z-score: 4.64
TO-N3 (biotin conjugate)
  pull-down binding Z-score: 5.35
[4]
  pull-down binding Z-score: 4.38

## CAGUCAGUAAAUAUUUUUUUGUGAAUG [hsa-mir-511]
[1]
  pull-down binding Z-score: 0.202
[2]
  pull-down binding Z-score: -0.305
[3]
  pull-down binding Z-score: 0.0526
TO-N3 (biotin conjugate)
  pull-down binding Z-score: -0.146
[4]
  pull-down binding Z-score: -0.132

## CUUUGGUGGCUAUGGUUGACUGGGCCACUCAGAG [hsa-mir-4468]
[1]
  pull-down binding Z-score: 2.29
[2]
  pull-down binding Z-score: -0.366
[3]
  pull-down binding Z-score: -0.332
TO-N3 (biotin conjugate)
  pull-down binding Z-score: -0.123
[4]
  pull-down binding Z-score: 0.846

## AUGGAUAUGGGAACUGUGAUGUCCA [hsa-mir-4768]
[1]
  pull-down binding Z-score: 1.17
[2]
  pull-down binding Z-score: -0.305
[3]
  pull-down binding Z-score: 0.0446
TO-N3 (biotin conjugate)
  pull-down binding Z-score: -0.136
[4]
  pull-down binding Z-score: 0.232

## GCUUAUUGAUGUAGCCAACAAGC [hsa-mir-3148]
[1]
  pull-down binding Z-score: -0.529
[2]
  pull-down binding Z-score: -0.527
[3]
  pull-down binding Z-score: -0.225
TO-N3 (biotin conjugate)
  pull-down binding Z-score: -0.643
[4]
  pull-down binding Z-score: -0.384

## CAAUCAUGUAUAAUUAAAUUUGAUUG [hsa-mir-514a-1]
[1]
  pull-down binding Z-score: 0.528
[2]
  pull-down binding Z-score: -0.112
[3]
  pull-down binding Z-score: 0.0139
TO-N3 (biotin conjugate)
  pull-down binding Z-score: -0.511
[4]
  pull-down binding Z-score: -1.18

## UCUUCCCGGAGUCGGGAAAA [hsa-mir-320a]
[1]
  pull-down binding Z-score: 1.85
[2]
  pull-down binding Z-score: -0.0669
[3]
  pull-down binding Z-score: -0.307
TO-N3 (biotin conjugate)
  pull-down binding Z-score: -0.187
[4]
  pull-down binding Z-score: -0.901

## UUGUGAAACACAGGUGUUUUUUAACCUCAC [hsa-mir-6841]
[1]
  pull-down binding Z-score: -0.237
[2]
  pull-down binding Z-score: 0.199
[3]
  pull-down binding Z-score: 0.0964
TO-N3 (biotin conjugate)
  pull-down binding Z-score: 0.172
[4]
  pull-down binding Z-score: 0.257

## AGGGCAGCUCCCAUGACUGCCUGACCGC [hsa-mir-6880]
[1]
  pull-down binding Z-score: -0.549
[2]
  pull-down binding Z-score: 0.15
[3]
  pull-down binding Z-score: 0.266
TO-N3 (biotin conjugate)
  pull-down binding Z-score: 0.663
[4]
  pull-down binding Z-score: 1.4

## AUGUGAUGUGAGCAGAUGGUUCUCACU [hsa-mir-6758]
[1]
  pull-down binding Z-score: -0.46
[2]
  pull-down binding Z-score: -0.532
[3]
  pull-down binding Z-score: -0.346
TO-N3 (biotin conjugate)
  pull-down binding Z-score: -0.621
[4]
  pull-down binding Z-score: 0.176

## ACGUGACCUCCUGGGCCUG [hsa-mir-6770-1_6770-3_6770-2]
[1]
  pull-down binding Z-score: -0.342
[2]
  pull-down binding Z-score: 0.505
[3]
  pull-down binding Z-score: 0.131
TO-N3 (biotin conjugate)
  pull-down binding Z-score: 0.829
[4]
  pull-down binding Z-score: 1

## AGUAUGGAUUAAAUUUAUAUUUUCCUCGAUACU [hsa-mir-8084]
[1]
  pull-down binding Z-score: 0.482
[2]
  pull-down binding Z-score: 0.413
[3]
  pull-down binding Z-score: 0.212
TO-N3 (biotin conjugate)
  pull-down binding Z-score: 0.316
[4]
  pull-down binding Z-score: -0.547

## GCAGUCCUGUGGGAAUGAGAGAUGCCAAACUGGACCUGC [hsa-mir-3972]
[1]
  pull-down binding Z-score: 1.52
[2]
  pull-down binding Z-score: 0.53
[3]
  pull-down binding Z-score: 0.373
TO-N3 (biotin conjugate)
  pull-down binding Z-score: 1.4
[4]
  pull-down binding Z-score: 1.38
